Data taken from US20240010730A1 (SHANGHAI HUAOTA BIOPHARMACEUTICAL, published 2024).
Read-outs that look alike come from different tables or passages of the source.

B1: B3/29F6 (antibody, V domains shown)
VH: DVQLQESGPGLVKPSQSLSLTCTVTGYSITSDYAWIWIRQFPGNKVEWMGYITSSGSTSYNPSLKSRISFTRDTSKNQFFLQLTSVTTEDTATYYCARLDFGNYGGAMDYWGQGTSVTVSS
VL: DIVMTQSHKFMSTSIGDRVSITCKASQHVSTAVAWYQQKPGQSPKLLIYSASYRYTGVPDRFTGSRSGTDFTFTISSVQAEDLAVYYCQQHYITPYTFGGGTKLEIK
notes: Mouse hybridoma antibody
B2: HB0030 (antibody, human IgG1, kappa, V domains shown)
VH: QVQLQESGPGLVKPSETLSLTCTVSGYSITSDYAWIWIRQPPGKGLEWIGYITSSGSTYYNPSLKSRVTFSVDTSKNQFSLKLSSVTAADTATYYCARLDFGNYGGAMDYWGQGTLVTVSS
VL: DIQMTQSPSSLSASVGDRVTITCRASQHVSTAVNWYQQKPGKAPKLLIYSASYLYSGVPSRFSGSRSGTDFTLTISSLQPEDFATYYCQQHYITPYTFGQGTKLEIKR
notes: Humanized anti-TIGIT IgG1; also called 900461; TIGIT parental monoclonal antibody
B3: 900692 (bispecific antibody, human IgG1, kappa)
heavy: not shown
light: DVVMTQTPLSLSVTPGQPASISCKSSQSLANSYGNTYLSWYLHKPGQSPQLLIYGISNRFSGVPDRFSGSGSGTDFTLKISRVEAEDVGVYYCLQGTHQPPTFGQGTKLEIKRTVAAPSVFIFPPSDEQLKSGTASVVCLLNNFYPREAKVQWKVDNALQSGNSQESVTEQDSKDSTYSLSSTLTLSKADYEKHKVYACEVTHQGLSSPVTKSFNRGEC
notes: also called PD-L1-IgG-TIGIT-scFv
B4: 900693 (bispecific antibody, human IgG1, kappa)
heavy: not shown
light: B3 light
notes: as for B3

Assays:
[1] = target: T1, human TIGIT (hybridoma screening, Table 1) (human, UniProt Q495A1 22-141, limits assumed); assay: Biacore (SPR), hybridoma screening
T1 sequence (looked up): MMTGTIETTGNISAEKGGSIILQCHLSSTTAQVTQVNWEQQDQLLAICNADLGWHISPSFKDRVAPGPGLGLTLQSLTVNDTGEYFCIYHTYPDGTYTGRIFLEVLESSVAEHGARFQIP

[2] = target: T2, human TIGIT on CHOK1-huTIGIT-2A3 cells (human, UniProt Q495A1 22-244); assay: flow cytometry competition with huCD155-moFc on CHOK1-huTIGIT-2A3 cells
T2 construct: whole, on cells; also called cells expressing the human TIGIT
T2 sequence (looked up): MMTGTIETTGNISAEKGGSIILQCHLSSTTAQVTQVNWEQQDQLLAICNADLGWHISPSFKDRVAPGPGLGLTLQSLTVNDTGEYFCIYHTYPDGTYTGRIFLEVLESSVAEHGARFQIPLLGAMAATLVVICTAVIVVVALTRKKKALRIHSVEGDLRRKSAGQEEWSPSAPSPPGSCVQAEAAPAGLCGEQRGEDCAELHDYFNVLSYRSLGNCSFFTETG
Procedure: After reaction, the 96-well U-shaped plate was resuspended with 1% BSA/PBS, centrifuged (300 g×3 min) to discard the supernatant, and washed once in such way; and Alexa488-goat anti-mouse-Fc (Jackson ImmunoResearch, #115-545-071) diluted at 1:300 was added to react for 15 min in the dark at room temperature. After reaction, the 96-well U-shaped plate was resuspended with 1% BSA/PBS, centrifuged (300 g×3 min) to discard the supernatant, washed three times in such a way, and finally resuspended with 100 μL of 1% BSA/PBS for each wall; and the fluorescence intensity of an FITC channel was detected with a flow cytometer (BD, #CantoII).

[3] = target: T3, Human TIGIT (SPR analyte, Example 7) (human, UniProt Q495A1 22-141, limits assumed); assay: SPR (Biacore 8K), antibody captured by anti-human chip, antigen analyte, 1:1 model
T3 sequence (looked up): T1 sequence (looked up)
Procedure: (§1) The Anti-Human Capture-CMS chip (GE, #BR-1005-30) was prepared according to the method for conjugating the Human Antibody Capture Kit (GE, #BR-1008-39) to the Amino Conjugation Kit (GE, BR-1000-50).

[4] = target: T2, human TIGIT on CHOK1-huTIGIT-2A3 cells; assay: flow cytometry on CHOK1-huTIGIT-2A3 cells
Procedure: All chimeric antibodies and humanized antibodies were diluted to 20 μg/ml with 1% BSA in PBS solution (1% BSA/PBS), were added to a 96-well U-shaped plate at 20 μL per well; and a negative control (with 1% BSA/PBS added only) was set up at the same time. The suspension of cells (CHOK1-huTIGIT-2A3, Huabo Biopharm) expressing human TIGIT during the logarithmic growth phase were centrifuged (1000 rpm×5 min) to discard the culture medium; and the cells were resuspended with 1% BSA/PBS until the density of viable cells was 1×10⁶/mL, and were added, at 20 μL (2×10⁴ cells) per well, to the 96-well U-shaped plate with the anti-TIGIT antibody to react for 30 min at room temperature. After reaction, the 96-well U-shaped plate was resuspended with 1% BSA/PBS, centrifuged (300 g×3 min) to discard the supernatant, and washed once in such a way; and PE-goat anti-human-Fc (Jackson ImmunoResearch, #109-115-098) diluted at 1:200 was added to react for 15 min in the dark at room temperature. After reaction, the 96-well U-shaped plate was resuspended with 1% BSA/PBS, centrifuged (300 g×3 min) to discard the supernatant, washed three times in such a way, and finally resuspended with 100 μL of 1% BSA/PBS for each wall; and the fluorescence intensity of a PE channel was detected with a flow cytometer (BD, #CantoII).

[5] = target: T3, Human TIGIT (SPR analyte, Example 7); assay: SPR (Biacore 8K), antibody captured by anti-human chip, antigen analyte, 1:1 model; remark: listed apart in the source
Procedure: as §1

[6] = target: TIGIT on Jurkat-TIGIT-22G8 cells; assay: cell-based or functional assay
[7] = target: T4, histidine-tagged (His-Tag) human TIGIT protein (huTIGIT, ACRO Biosystems, #TIT-H52H3) (human, UniProt Q495A1 22-141); assay: SPR (Biacore 8K), antibody captured on Protein A chip, huTIGIT-His analyte, 1:1 model
T4 construct: Bought reagent; not shown: His tag
T4 sequence (looked up): T1 sequence (looked up)
Procedure: This test determined the antigen-antibody binding kinetics and affinity by using an SPR method. BIOCORE (GE, #Biacore 8K) was used. […] An antibody sample was diluted using an equilibration buffer to an experimental working concentration, and sealed at 2-8° C. for later use. The antigen, namely, the histidine-tagged (His-Tag) human TIGIT protein (huTIGIT, ACRO Biosystems, #TIT-H52H3), was diluted with an equilibration buffer HBS-EP (10×) (GE, #BR-1006-69). Starting at 20 nM, the antigen was diluted by 2.5-fold for 5 concentration gradients, and 2 replications were set up for zero concentration (i.e., the equilibration buffer) and the lowest concentration. The chip was regenerated with pH1.5 glycine solution (GE, #BR100354).

[8] = target: PD-L1 on CHO-K1-0S8-PD-L1-8D6 cells; assay: cell-based or functional assay
[9] = target: Human PD-L1 (SPR analyte, Example 7) (human, UniProt Q9NZQ7 19-238, limits assumed); assay: SPR (Biacore 8K), antibody captured by anti-human chip, antigen analyte, 1:1 model
Procedure: as §1

Sequence of Human PD-L1 (SPR analyte, Example 7) (Q9NZQ7 19-238 limits assumed): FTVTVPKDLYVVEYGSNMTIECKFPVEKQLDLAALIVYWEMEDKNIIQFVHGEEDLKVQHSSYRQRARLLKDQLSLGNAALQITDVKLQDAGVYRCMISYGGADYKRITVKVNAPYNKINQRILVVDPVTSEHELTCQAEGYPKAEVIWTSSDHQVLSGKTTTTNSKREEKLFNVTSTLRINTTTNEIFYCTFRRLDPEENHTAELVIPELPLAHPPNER
Sequence of PD-L1 on CHO-K1-0S8-PD-L1-8D6 cells (Q9NZQ7 whole entry): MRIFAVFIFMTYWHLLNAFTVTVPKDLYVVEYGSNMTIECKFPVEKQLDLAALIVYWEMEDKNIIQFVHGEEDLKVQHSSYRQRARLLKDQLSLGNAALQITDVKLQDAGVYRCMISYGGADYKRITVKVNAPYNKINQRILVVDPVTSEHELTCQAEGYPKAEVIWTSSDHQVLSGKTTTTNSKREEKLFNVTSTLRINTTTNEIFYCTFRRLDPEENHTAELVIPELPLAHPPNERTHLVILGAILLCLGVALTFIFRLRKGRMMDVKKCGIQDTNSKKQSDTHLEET

Row | Kd [1] [nM] | IC50 [2] [µg/mL] | Kd [3] [nM] | koff [3] [s⁻¹] | kon [3] [M⁻¹ s⁻¹] | EC50 [4] [µg/mL] | Kd [5] [nM] | koff [5] [s⁻¹] | kon [5] [M⁻¹ s⁻¹] | EC50 (nM), IL2 secretion of Jurkat-TIGIT-22G8 cells with PHA and CD155 [6] [nM] | Kd [7] [nM] | koff [7] [s⁻¹] | kon [7] [M⁻¹ s⁻¹] | EC50 (nM), luciferase reporter, Jurkat-NFAT-PD-1-5B8 cells with CHO-K1-0S8-PD-L1-8D6 cells [8] [nM] | Kd [9] [nM] | koff [9] [s⁻¹] | kon [9] [M⁻¹ s⁻¹] | Binder
1 | 0.0139 |  |  |  |  |  |  |  |  |  |  |  |  |  |  |  |  | B1
2 |  | 0.0573 | 0.0346 | 0.000175 | 5.07e+06 | 0.0466 | 0.0345 | 0.000167 | 4.82e+06 | 5.82 | 0.0583 | 0.000185 | 3.17e+06 |  |  |  |  | B2
3 |  |  |  |  |  |  | 0.0751 | 9.11e-05 | 1.21e+06 |  |  |  |  | 2.09 | 2.79 | 0.00057 | 204000 | B3
4 |  |  |  |  |  |  | 0.0863 | 8.03e-05 | 930000 |  |  |  |  | 1.98 | 2.27 | 0.000498 | 219000 | B4
